Laboratory results taken from patent publication US20170119913A1.
Numbered stars: 1 amine (or outer) side, 2 acyl side, 3 side chain; on linkers, the order of the positions; unused ones are H or OH. Square brackets hold non-standard residues; d marks the D form. * marks the point of attachment. DOTA = O=C(O)CN1CCN(CC(=O)O)CCN(CC(=O)*)CCN(CC(=O)O)CC1; Ttds = O=C(CCC(=O)[*:2])NCCCOCCOCCOCCCN[*:1]; Glutaryl = O=C(CCCC(=O)[*:2])[*:1]; Tle = CC(C)(C)[C@H](N)C(=O)O; 1206 = not defined here; GABA = NCCCC(=O)O

How the values were obtained:
[1] = biological target: T1, delta 2 (DOP) (h), delta2 opioid receptor (human (printed as (h))), P41143; assay: Cerep ExpresSProfile radioligand competition binding, reference compound (agonist radioligand)
T1 chain: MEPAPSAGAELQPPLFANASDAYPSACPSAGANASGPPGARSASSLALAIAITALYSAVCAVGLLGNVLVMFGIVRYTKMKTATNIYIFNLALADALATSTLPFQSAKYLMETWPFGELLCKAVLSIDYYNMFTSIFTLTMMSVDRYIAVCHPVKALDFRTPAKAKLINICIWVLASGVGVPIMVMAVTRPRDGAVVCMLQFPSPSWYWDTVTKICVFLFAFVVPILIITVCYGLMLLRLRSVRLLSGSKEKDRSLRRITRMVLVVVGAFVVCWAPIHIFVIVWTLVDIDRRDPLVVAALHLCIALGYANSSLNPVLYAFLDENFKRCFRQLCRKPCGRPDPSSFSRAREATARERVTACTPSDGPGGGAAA

[2] = biological target: NTR1 on HT29 or NTR1-expressing HEK293 cells (UniProt P30989); assay: cell-based or functional assay
[3] = biological target: neurotensin receptor 1 (NTR1), human, prepared from CHO cells recombinantly expressing the human receptor (human) (UniProt P30989); assay: radioligand binding assay (Cerep 0109): displacement of 0.05 nM 125I-(Tyr3-neurotensin) from human NTR1 prepared from CHO cells
Chain of neurotensin receptor 1 (NTR1), human, prepared from CHO cells recombinantly expressing the human receptor (human) (P30989 whole entry): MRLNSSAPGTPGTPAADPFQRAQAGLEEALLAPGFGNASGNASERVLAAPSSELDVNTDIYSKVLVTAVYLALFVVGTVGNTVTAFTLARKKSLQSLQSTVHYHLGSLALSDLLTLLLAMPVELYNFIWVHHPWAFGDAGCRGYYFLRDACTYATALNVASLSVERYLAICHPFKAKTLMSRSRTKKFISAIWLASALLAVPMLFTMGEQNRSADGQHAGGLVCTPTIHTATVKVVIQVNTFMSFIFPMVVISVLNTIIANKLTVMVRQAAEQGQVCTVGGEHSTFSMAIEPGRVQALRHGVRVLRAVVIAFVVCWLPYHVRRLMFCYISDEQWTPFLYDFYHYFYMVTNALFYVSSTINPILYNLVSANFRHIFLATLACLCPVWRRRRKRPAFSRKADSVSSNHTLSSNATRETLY

Chain of NTR1 on HT29 or NTR1-expressing HEK293 cells (P30989 whole entry): as above

Row | Binder | Ki [1] [nM] | Agonistic Effect EC50 [nM], functional Ca2+ mobilisation assay [2] [nM] | Antagonistic Effect IC50 [nM], functional Ca2+ mobilisation assay [2] [nM] | IC50 [3] [nM]
1 | YCGFC (modifications not checked) [DPDPE] | 2 | – | – | –
2 | {1206-Glutaryl}-[Ttds]K(DOTA)[Ttds][GABA][dR]RPY[Tle]L-OH (reading uncertain) [1206-Glutar-Ttds-Lys(DOTA)-Ttds-GABA-arg-Arg-Pro-Tyr-Tle-Leu-OH (17)] | – | 7 | 3.4 | 0.32
3 | {1206-Glutaryl}-[Ttds]K(DOTA)[Ttds][GABA]RRPY[Tle]L-OH (reading uncertain) [1206-Glutar-Ttds-Lys(DOTA)-Ttds-GABA-Arg-Arg-Pro-Tyr-Tle-Leu-OH (16)] | – | 4 | 3.8 | 0.14
4 | {1206-Glutaryl}-[Ttds][Ttds][Ttds]K(DOTA)[Ttds][Ttds][Ttds][GABA][dR]RPY[Tle]L-OH (reading uncertain) [1206-Glutar-Ttds3-Lys(DOTA)-Ttds3-GABA-arg-Arg-Pro-Tyr-Tle-Leu-OH (18)] | – | > 50000 | 3.8 | 2.7
